Laboratory results: patent US20200207829A1, “CHIMERIC RECEPTORS” (Oxford University Innovation Limited, priority 2017, published 2020)

Assays:
Test in all cases: cell-based or functional assay
[1] = target: TMt-NES-dCas9VP64
[2] = target: TMt-dCas9(N/C)VP64
[3] = target: dCas9(N/C)-synBDKRB2
[4] = target: VEGFR2:TEV(N)-NES-dCas9(N)/VEGFR1:TEV(C)-NLS-dCas9(C)VP64 heterodimer, both with TCS(QG)
[5] = target: dCas9(N/C)-synVEGFR1/2 (heterodimer of dCas9(N)-synVEGFR2 with TCS(QL) and dCas9(C)-synVEGFR1 with TCS(QG))
[6] = target: dCas9(N/C)-synVEGFR1/2RI

Sequence of VEGFA121 (P15692 other isoform, or with tags, fused parts or gaps limits assumed): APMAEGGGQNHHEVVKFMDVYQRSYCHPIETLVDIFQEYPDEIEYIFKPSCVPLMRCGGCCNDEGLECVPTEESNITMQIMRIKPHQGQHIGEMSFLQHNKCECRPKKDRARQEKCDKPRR

Substance: TEV protease (from UniProt P04517 2038-2273) (enzyme)
- fold increase in reporter activation score upon TEV expression [1]: 35 fold
- fold increase in output reporter activation score [2]: 234 fold

Substance: Bradykinin (from UniProt P01042 381-389) (peptide)
- fold increase in EYFP output activation score (HTLA cells) [3]: > 900 fold
- half-maximal effective agonist concentration (EC50), EYFP reporter dose-response, 0.01 nM-10 µM bradykinin [3]: 603 nM

Substance: VEGFA121 (from UniProt P15692 181-395) (ligand)
- EYFP activation score, VEGFA121-dependent ON/OFF fold differential (HEK-293T reporter assay) [4]: 5.5 fold
- ASCL1 mRNA levels, RT-qPCR (FIG. 2F legend) [5]: 50 fold
- ASCL1 mRNA levels, RT-qPCR, relative to the no-agonist condition [5]: 48.3 fold
- TNFα mRNA, RT-qPCR, relative to no-agonist conditions [5]: 18 fold
- TSP-1 mRNA, RT-qPCR, relative to no-agonist conditions [5]: 16.2 fold
- fold increase in EYFP activation score (FIG. 2D) [5]: 1180 fold
- fold increase in EYFP activation score (HEK-293T reporter assay) [5]: 1000 fold
- EYFP target gene induction with VEGFA121 and rapamycin together (AND gate, with FRB-VP64) [6]: > 90 fold
